In the test the target is soluble monomeric FcγRIIIA-linker-AVITAG (human) (UniProt P08637). In words: ELISA.
Sequence of soluble monomeric FcγRIIIA-linker-AVITAG (human) (P08637 17-203 F176V limits assumed, form in doubt): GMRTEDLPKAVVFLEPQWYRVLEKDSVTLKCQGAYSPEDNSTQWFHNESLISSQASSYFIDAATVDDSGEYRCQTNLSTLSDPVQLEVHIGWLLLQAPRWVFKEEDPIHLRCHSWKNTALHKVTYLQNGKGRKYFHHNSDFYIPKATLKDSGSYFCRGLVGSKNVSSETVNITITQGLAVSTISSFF

In the case of ch4-4-20 T335N, P387S, H435Q (antibody), the fold vs wt was found to be 1.25 x.
On the same count and under the same terms, the value for ch4-4-20 V284A, F372L (antibody) was 1 x.
Consider ch4-4-20 H224L (antibody), for which the fold increase vs wt amounted to 0.5 x.
“ch4-4-20 K326Q, K334E, T359N, T366S (antibody)”: the fold increase vs wt is 1.5 x.
On the same count and under the same terms, the value for ch4-4-20 T394M, V397M (antibody) was 0.5 x.
The same measure, in the same setting: then ch4-4-20 K246T, Y319F (antibody), with 1 x.
On to ch4-4-20 I377N (antibody), for which the fold decrease vs wt came out at 0.5 x.
Take ch4-4-20 P247L, A431V, S442F (antibody): the fold vs wt is 1 x.
Turning to ch4-4-20 V282M (antibody), the fold increase vs wt is 1 x.
The same measure, in the same setting: the value for ch4-4-20 Q347H, A339V (antibody) was 0.5 x; that for ch4-4-20 H268D, E318D (antibody) was 1.5 x.
ch4-4-20 F275I, K334N, V348M (antibody): the fold increase vs wt was determined as 0.5 x.
With ch4-4-20 R301C, M252L, S192T (antibody), the fold decrease vs wt was 0.5 x.
Consider “ch4-4-20 K334E, T359N, T366S, Q386R (antibody)”, for which the fold increase vs wt came to 1 x.
Same read-out and setting: then ch4-4-20 K334N (antibody), with 0.5 x.
Still for that read-out and setting: the value for ch4-4-20 K222N (antibody) was 1 x.
ch4-4-20 K414N (antibody): the fold decrease vs wt turned out to be 0.25 x.
Consider ch4-4-20 P396L (antibody), for which the fold increase vs wt came out at 1 x.
Same read-out and setting: then ch4-4-20 K246R, S298N, I377F (antibody), with 1 x.
The same measure, in the same setting: the value for ch4-4-20 K218R, G281D, G385R (antibody) was 3.5 x.
Same read-out and setting: then ch4-4-20 H310Y, T289A, G337E (antibody), with 0.5 x; and ch4-4-20 K326E, G385E (antibody), with 0.5 x.
On to ch4-4-20 K334I (antibody), for which the fold increase vs wt was found to be 1 x.
The same measure, in the same setting: then ch4-4-20 E233D, K334E (antibody), with 1.5 x; and ch4-4-20 V397M, T411A, S415N (antibody), with 0.25 x; and ch4-4-20 K334N, P396L (antibody), with 3.1 x.
On the same count and under the same terms, then ch4-4-20 F243L, R255L, E318K (antibody), with 1 x; and ch4-4-20 S219Y (antibody), with 1 x; and “ch4-4-20 L235P, V382M, S304G, V305I, V323I (antibody)”, with 2 x.
The same measure, in the same setting: then ch4-4-20 D312E, K327N, I378S (antibody), with 0.5 x.
Regarding “ch4-4-20 P291S, K288E, H268L, A141V (antibody)”, the fold decrease vs wt stood at 0.5 x.
In the case of ch4-4-20 F275Y (antibody), the fold increase vs wt was found to be 3 x.
Same read-out and setting: then ch4-4-20 P247L, W313R, E388G (antibody), with 1.5 x.
Turning to ch4-4-20 K334E (antibody), the fold increase vs wt came out at 2.5 x.
The same measure, in the same setting: the value for ch4-4-20 L398V (antibody) was 1.5 x; that for ch4-4-20 P247L, L398Q (antibody) was 1.25 x; that for ch4-4-20 A378V, N390I, V422I (antibody) was 0.5 x.
Same read-out and setting: the value for “ch4-4-20 T256S, V305I, K334E, N390S (antibody)” was 1.5 x.
Regarding “ch4-4-20 S383N, N384K, T256N, V262L, K218E, R214I, K205E, F149Y, K133M (antibody)”, the fold increase vs wt stood at 0.5 x.
On the same count and under the same terms, then ch4-4-20 K288N, K326N (antibody), with 1 x.
For the substance ch4-4-20 R255Q, K326E (antibody), the fold increase vs wt turned out to be 2 x.
Same read-out and setting: the value for ch4-4-20 V279L, P395S (antibody) was 1 x.

These data come from patent US20060134709A1.
